Results published in article PMC5915679 (Molecular cell, 2017).
No end group written: not given here. FAM = fluorescein amidite

Tests used:
[1] = biological target: T1, human Argonaute-1 (human, UniProt Q9UL18 1-857); assay: fluorescence polarisation
[2] = biological target: T1, human Argonaute-1; assay: ITC

binding result [1]	Kd [2] [nM]	Binder
binds		{FAM}-TVDNGTSAWGKPIDSGPSWGEP (peptide, UniProt Q8NDV7-2 820-841, looked up) [N-terminal fluorescein amidite (FAM) labeled hGW182 hook fragment]
	383	TVDNGTSAWGKPIDSGPSWGEP (peptide, UniProt Q8NDV7-2 820-841, looked up) [hGW182 (TNRC6A) hook motif]
